Source: the supplement of paper PMC9112550, “Optimization of the antimicrobial peptide Bac7 by deep mutational scanning” (BMC Biology, 2022)

test system: Escherichia coli TOP10; experiment: shrunken log2 fold change of peptide-encoding DNA abundance (4.5 h post-induction vs induction); higher = less antimicrobial activity (less host growth inhibition); details: time post-induction: 4.5 h; library: site-saturation at positions 5, 18, 19, 20
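Also: peptides expressed intracellularly from a pBAD plasmid library in pooled LB shake-flask culture, induced with 0.3% L-arabinose, DNA abundance read by NGS, three biological replicates, DESeq2 with apeglm shrinkage.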

Row | Sequence | shrunken log2 fold change
1 | RRIRLRPPRLPRPRPRPNGRPRP | -0.192
2 | RRIRLRPPRLPRPRPRPNHAPRP | -0.0276
3 | RRIRLRPPRLPRPRPRPNHMPRP | -0.326
4 | RRIRLRPPRLPRPRPRPNHPPRP | -0.498
5 | RRIRLRPPRLPRPRPRPNIDPRP | -0.213
6 | RRIRLRPPRLPRPRPRPNKPPRP | -0.0372
7 | RRIRLRPPRLPRPRPRPNMHPRP | -0.565
8 | RRIRLRPPRLPRPRPRPNMLPRP | -0.58
9 | RRIRLRPPRLPRPRPRPNMVPRP | -0.126
10 | RRIRLRPPRLPRPRPRPNNLPRP | -0.177
11 | RRIRLRPPRLPRPRPRPNPLPRP | 0.256
12 | RRIRLRPPRLPRPRPRPNRGPRP | -0.00212
13 | RRIRLRPPRLPRPRPRPNSHPRP | -0.404
14 | RRIRLRPPRLPRPRPRPNTDPRP | -0.371
15 | RRIRLRPPRLPRPRPRPNYVPRP | -0.566
16 | RRIRLRPPRLPRPRPRPPAIPRP | 2.54
17 | RRIRLRPPRLPRPRPRPPCLPRP | 0.0124
18 | RRIRLRPPRLPRPRPRPPCPPRP | 0.316
19 | RRIRLRPPRLPRPRPRPPDHPRP | 0.0205
20 | RRIRLRPPRLPRPRPRPPDNPRP | 0.0299
21 | RRIRLRPPRLPRPRPRPPEQPRP | -0.0138
22 | RRIRLRPPRLPRPRPRPPEYPRP | -0.26
23 | RRIRLRPPRLPRPRPRPPFKPRP | 0.0605
24 | RRIRLRPPRLPRPRPRPPGDPRP | 0.834
25 | RRIRLRPPRLPRPRPRPPHWPRP | 0.38

Row | Sequence | shrunken log2 fold change
26 | RRIRLRPPRLPRPRPRPPKMPRP | 0.159
27 | RRIRLRPPRLPRPRPRPPLSPRP | -0.00759
28 | RRIRLRPPRLPRPRPRPPMCPRP | 0.202
29 | RRIRLRPPRLPRPRPRPPMNPRP | -0.114
30 | RRIRLRPPRLPRPRPRPPMPPRP | 0.0906
31 | RRIRLRPPRLPRPRPRPPNDPRP | 0.0552
32 | RRIRLRPPRLPRPRPRPPNWPRP | 0.377
33 | RRIRLRPPRLPRPRPRPPPAPRP | 1.52
34 | RRIRLRPPRLPRPRPRPPPGPRP | 1.29
35 | RRIRLRPPRLPRPRPRPPPQPRP | 1.12
36 | RRIRLRPPRLPRPRPRPPQKPRP | 0.131
37 | RRIRLRPPRLPRPRPRPPQSPRP | 0.0818
38 | RRIRLRPPRLPRPRPRPPREPRP | 0.544
39 | RRIRLRPPRLPRPRPRPPRFPRP | 0.209
40 | RRIRLRPPRLPRPRPRPPRMPRP | 0.232
41 | RRIRLRPPRLPRPRPRPPSVPRP | -0.0845
42 | RRIRLRPPRLPRPRPRPPTVPRP | 0.026
43 | RRIRLRPPRLPRPRPRPPVAPRP | 0.387
44 | RRIRLRPPRLPRPRPRPPVFPRP | 0.0392
45 | RRIRLRPPRLPRPRPRPPVTPRP | 0.353
46 | RRIRLRPPRLPRPRPRPQACPRP | 0.00768
47 | RRIRLRPPRLPRPRPRPQAIPRP | -0.152
48 | RRIRLRPPRLPRPRPRPQANPRP | -0.289
49 | RRIRLRPPRLPRPRPRPQAVPRP | 0.0328
50 | RRIRLRPPRLPRPRPRPQCCPRP | 0.0421

Row | Sequence | shrunken log2 fold change
51 | RRIRLRPPRLPRPRPRPQDAPRP | 0.0335
52 | RRIRLRPPRLPRPRPRPQFYPRP | -0.727
53 | RRIRLRPPRLPRPRPRPQGMPRP | -0.0379
54 | RRIRLRPPRLPRPRPRPQHFPRP | -0.343
55 | RRIRLRPPRLPRPRPRPQKAPRP | 0.000116
56 | RRIRLRPPRLPRPRPRPQKIPRP | 0.0459
57 | RRIRLRPPRLPRPRPRPQPFPRP | -1.07
58 | RRIRLRPPRLPRPRPRPQQEPRP | 0.0119
59 | RRIRLRPPRLPRPRPRPQQWPRP | -0.0673
60 | RRIRLRPPRLPRPRPRPQRIPRP | -0.141
61 | RRIRLRPPRLPRPRPRPQSVPRP | -0.325
62 | RRIRLRPPRLPRPRPRPQTHPRP | 0.0338
63 | RRIRLRPPRLPRPRPRPQTVPRP | -0.211
64 | RRIRLRPPRLPRPRPRPQVCPRP | -0.00713
65 | RRIRLRPPRLPRPRPRPQVVPRP | -0.252
66 | RRIRLRPPRLPRPRPRPQYMPRP | -0.0107
67 | RRIRLRPPRLPRPRPRPRARPRP | 0.619
68 | RRIRLRPPRLPRPRPRPRATPRP | 0.228
69 | RRIRLRPPRLPRPRPRPRAWPRP | 0.41
70 | RRIRLRPPRLPRPRPRPREGPRP | 0.966
71 | RRIRLRPPRLPRPRPRPREVPRP | 0.59
72 | RRIRLRPPRLPRPRPRPRFVPRP | 0.123
73 | RRIRLRPPRLPRPRPRPRGMPRP | 0.239
74 | RRIRLRPPRLPRPRPRPRGQPRP | 0.533
75 | RRIRLRPPRLPRPRPRPRGWPRP | 0.722

Row | Sequence | shrunken log2 fold change
76 | RRIRLRPPRLPRPRPRPRHHPRP | -0.0411
77 | RRIRLRPPRLPRPRPRPRIIPRP | -1.12
78 | RRIRLRPPRLPRPRPRPRLKPRP | 0.885
79 | RRIRLRPPRLPRPRPRPRMGPRP | 0.135
80 | RRIRLRPPRLPRPRPRPRMYPRP | -0.166
81 | RRIRLRPPRLPRPRPRPRQQPRP | 0.319
82 | RRIRLRPPRLPRPRPRPRQYPRP | -0.075
83 | RRIRLRPPRLPRPRPRPRRVPRP | 0.0457
84 | RRIRLRPPRLPRPRPRPRTEPRP | 0.0352
85 | RRIRLRPPRLPRPRPRPRTGPRP | 0.321
86 | RRIRLRPPRLPRPRPRPRTPPRP | 0.376
87 | RRIRLRPPRLPRPRPRPRVCPRP | 0.0558
88 | RRIRLRPPRLPRPRPRPRVPPRP | 0.264
89 | RRIRLRPPRLPRPRPRPRWIPRP | -0.074
90 | RRIRLRPPRLPRPRPRPSARPRP | 0.0346
91 | RRIRLRPPRLPRPRPRPSDGPRP | -0.162
92 | RRIRLRPPRLPRPRPRPSETPRP | -0.0373
93 | RRIRLRPPRLPRPRPRPSEWPRP | -0.0637
94 | RRIRLRPPRLPRPRPRPSFSPRP | -0.365
95 | RRIRLRPPRLPRPRPRPSGDPRP | 0.0305
96 | RRIRLRPPRLPRPRPRPSGTPRP | -0.114
97 | RRIRLRPPRLPRPRPRPSHAPRP | 0.212
98 | RRIRLRPPRLPRPRPRPSKSPRP | -0.0582
99 | RRIRLRPPRLPRPRPRPSLRPRP | 0.00716
100 | RRIRLRPPRLPRPRPRPSMNPRP | -0.345

Row | Sequence | shrunken log2 fold change
101 | RRIRLRPPRLPRPRPRPSMVPRP | -0.665
102 | RRIRLRPPRLPRPRPRPSNDPRP | 2.11
103 | RRIRLRPPRLPRPRPRPSNSPRP | -0.564
104 | RRIRLRPPRLPRPRPRPSPIPRP | -0.0508
105 | RRIRLRPPRLPRPRPRPSPKPRP | 0.0205
106 | RRIRLRPPRLPRPRPRPSPVPRP | -0.186
107 | RRIRLRPPRLPRPRPRPSQIPRP | 0.0199
108 | RRIRLRPPRLPRPRPRPSRKPRP | -0.177
109 | RRIRLRPPRLPRPRPRPSRQPRP | -0.189
110 | RRIRLRPPRLPRPRPRPSSLPRP | -0.39
111 | RRIRLRPPRLPRPRPRPSSMPRP | -0.179
112 | RRIRLRPPRLPRPRPRPSVDPRP | -0.462
113 | RRIRLRPPRLPRPRPRPSWDPRP | -0.0231
114 | RRIRLRPPRLPRPRPRPTAAPRP | 0.897
115 | RRIRLRPPRLPRPRPRPTAFPRP | 0.0454
116 | RRIRLRPPRLPRPRPRPTCFPRP | -0.156
117 | RRIRLRPPRLPRPRPRPTCQPRP | 0.0421
118 | RRIRLRPPRLPRPRPRPTDRPRP | -0.00223
119 | RRIRLRPPRLPRPRPRPTEDPRP | -0.0182
120 | RRIRLRPPRLPRPRPRPTFCPRP | 0.0876
121 | RRIRLRPPRLPRPRPRPTFDPRP | -0.173
122 | RRIRLRPPRLPRPRPRPTFNPRP | -0.289
123 | RRIRLRPPRLPRPRPRPTGNPRP | -0.044
124 | RRIRLRPPRLPRPRPRPTGQPRP | 0.107
125 | RRIRLRPPRLPRPRPRPTGYPRP | -0.206

Row | Sequence | shrunken log2 fold change
126 | RRIRLRPPRLPRPRPRPTHHPRP | 0.239
127 | RRIRLRPPRLPRPRPRPTIAPRP | -0.183
128 | RRIRLRPPRLPRPRPRPTLVPRP | -0.0392
129 | RRIRLRPPRLPRPRPRPTNRPRP | 0.267
130 | RRIRLRPPRLPRPRPRPTPSPRP | 0.552
131 | RRIRLRPPRLPRPRPRPTQCPRP | 0.0455
132 | RRIRLRPPRLPRPRPRPTQDPRP | 0.488
133 | RRIRLRPPRLPRPRPRPTQQPRP | 0.0862
134 | RRIRLRPPRLPRPRPRPTRAPRP | 0.498
135 | RRIRLRPPRLPRPRPRPTSIPRP | -0.178
136 | RRIRLRPPRLPRPRPRPTWWPRP | 0.454
137 | RRIRLRPPRLPRPRPRPTYNPRP | -0.869
138 | RRIRLRPPRLPRPRPRPTYWPRP | -0.256
139 | RRIRLRPPRLPRPRPRPVAHPRP | -0.454
140 | RRIRLRPPRLPRPRPRPVAPPRP | 0.474
141 | RRIRLRPPRLPRPRPRPVARPRP | 0.551
142 | RRIRLRPPRLPRPRPRPVCGPRP | 0.227
143 | RRIRLRPPRLPRPRPRPVCWPRP | 0.462
144 | RRIRLRPPRLPRPRPRPVDQPRP | 0.194
145 | RRIRLRPPRLPRPRPRPVEKPRP | 0.0244
146 | RRIRLRPPRLPRPRPRPVELPRP | 0.0718
147 | RRIRLRPPRLPRPRPRPVEQPRP | -0.0062
148 | RRIRLRPPRLPRPRPRPVFWPRP | 0.247
149 | RRIRLRPPRLPRPRPRPVGMPRP | -0.0033
150 | RRIRLRPPRLPRPRPRPVHPPRP | 0.039
